Measurements from PMC9942802.

Target: tube protein gp14 (cyanophage Pam3)
Test: cryo-EM structure

tube protein gp14 (natural protein) showed a stoichiometry N of 6.
